System: mitochondrial metabolism in HUVECs
Assay: NAD+/NADH cycling, ATP, glucose and lactate assays in HUVECs
Type: cell-based, human
Protocol: HUVECs plated into 100 mm dishes were treated with COCO for various time points. NAD+ and NADH were extracted using ice cold alkali (0.5M NaOH, 1 mM EDTA) and acidic buffers (0.1M HCl) respectively. Extracts were heated at 60° C. for 30 min and buffers were neutralized with either the NADH (100 mM Tris-HCl pH 8.1, 0.05M HCl) or NAD+(0.4M Tris) neutralization buffers. To attain measurable quantities of NAD+ or NADH, an amplifying cycling assay was performed. Extracts and NAD+ standards were incubated with cycling reagent (67 mM Tris-HCl pH 8, 200 mM EtOH, 1.3 mM beta-mercaptoethanol, 0.01% BSA, 2 mM oxaloacetic acid, 0.5 μg/mL malate dehydrogenase, 5 μg/mL alcohol dehydrogenase) for 1 hour at room temperature. All samples were heated for 5 min at 100 C to stop enzymatic reactions then cooled on ice. For detection, extracts were incubated in an indicator buffer (50 mM 2-amino-2-methyl-propanol pH 9.9, 200 μM NAD+, 10 mM glutamate, 0.04% BSA, 5 μg/mL malate dehydrogenase, 2 μg/mL glutamate oxaloacetate transaminase) for 10 min at room temperature. Then 100 μL if sample was transferred to a black 96-well plate. Fluorescence was detected using a plate reader (TECAN) at an excitation of 365 nm and emission of 460 nm. Standard curves were generated and the concentration of NAD+ and NADH were calculated from the standard curve (references: Kato T., et al. Analytical Biochemistry 53, 86-97 (1973); Lin S., et al, JBC. Vol 276, No. 38, 36000-36007 (2001)).
ATP detection: HUVECs were plated into 100 mm dishes and treated with COCO for various time points. ATP was measured by luminescence (ATP Detection Assay Kit; Cayman Chemicals). Metabolite measurements: HUVECs were cultured for up to 48 hours in the presence or absence of COCO. Culture media was collected at 1 h, 3 h, 6 h, 12 h, 24 h and 48 h, centrifuged at 12000 rpm for 5 min, aliquoted and stored at −80 C. Media was analyzed for glucose concentration using a BioProfiler 400 Analyzer (BioNova). For measurements of lactate, the culture media was analyzed using the Lactate Colorimetric/Fluorometric Assay Kit (BioVision, K607) as per the manufacturer's instructions.
We exposed or not HUVECs to recombinant DAND5 and measured the concentration of free radicals using DCFDA and MitoSoxRed™. […] To further test this, we measure the NAD+/NADH ratio in cells treated or not with DAND5. […] Likewise, glucose uptake was reduced and lactate levels were increased in DAND5-treated HUVECs after 1 h (FIG. 8E, lower panel).

B1: DAND5: human recombinant DAND5/COCO biologically active fragment produced in E. coli, predicted 18.2 kDa monomer, R&D systems 3047-CC-050 (protein)
chain: MRPEPQSPRPQSWAAANQTWALGPGALPPLVPASALGSWKAFLGLQKARQLGMGRLQRGQDEVAAVTLPLNPQEVIQGMCKAVPFVQVFSRPGCSAIRLRNHLCFGHCSSLYIPGSDPTPLVLCNSCMPARKRWAPVVLWCLTGSSASRRRVKISTMLIEGCHCSPKA
HUVECs exposed to DAND5
  NAD+/NADH ratio: decreased
HUVECs, after 1 h
  glucose uptake: reduced
  lactate levels: increased
HUVECs, after 1 h of treatment
  ATP levels: reduced
HUVECs, at 1, 6 and 24 hours
  ATP levels: reduced

Source: US20220265772A1, “USES OF DAN FAMILY BMP ANTAGONISTS FOR INHIBITING OCULAR NEOVASCULARIZATION AND TREATING OCULAR CONDITIONS” (9636137 Canada Inc., priority 2019, published 2022)
